Values quoted from earlier work in article PMC12524998.

Target: dysferlin (Homo sapiens) (UniProt O75923)
Test: SPR

Chain of UniProt O75923 (O75923 whole entry): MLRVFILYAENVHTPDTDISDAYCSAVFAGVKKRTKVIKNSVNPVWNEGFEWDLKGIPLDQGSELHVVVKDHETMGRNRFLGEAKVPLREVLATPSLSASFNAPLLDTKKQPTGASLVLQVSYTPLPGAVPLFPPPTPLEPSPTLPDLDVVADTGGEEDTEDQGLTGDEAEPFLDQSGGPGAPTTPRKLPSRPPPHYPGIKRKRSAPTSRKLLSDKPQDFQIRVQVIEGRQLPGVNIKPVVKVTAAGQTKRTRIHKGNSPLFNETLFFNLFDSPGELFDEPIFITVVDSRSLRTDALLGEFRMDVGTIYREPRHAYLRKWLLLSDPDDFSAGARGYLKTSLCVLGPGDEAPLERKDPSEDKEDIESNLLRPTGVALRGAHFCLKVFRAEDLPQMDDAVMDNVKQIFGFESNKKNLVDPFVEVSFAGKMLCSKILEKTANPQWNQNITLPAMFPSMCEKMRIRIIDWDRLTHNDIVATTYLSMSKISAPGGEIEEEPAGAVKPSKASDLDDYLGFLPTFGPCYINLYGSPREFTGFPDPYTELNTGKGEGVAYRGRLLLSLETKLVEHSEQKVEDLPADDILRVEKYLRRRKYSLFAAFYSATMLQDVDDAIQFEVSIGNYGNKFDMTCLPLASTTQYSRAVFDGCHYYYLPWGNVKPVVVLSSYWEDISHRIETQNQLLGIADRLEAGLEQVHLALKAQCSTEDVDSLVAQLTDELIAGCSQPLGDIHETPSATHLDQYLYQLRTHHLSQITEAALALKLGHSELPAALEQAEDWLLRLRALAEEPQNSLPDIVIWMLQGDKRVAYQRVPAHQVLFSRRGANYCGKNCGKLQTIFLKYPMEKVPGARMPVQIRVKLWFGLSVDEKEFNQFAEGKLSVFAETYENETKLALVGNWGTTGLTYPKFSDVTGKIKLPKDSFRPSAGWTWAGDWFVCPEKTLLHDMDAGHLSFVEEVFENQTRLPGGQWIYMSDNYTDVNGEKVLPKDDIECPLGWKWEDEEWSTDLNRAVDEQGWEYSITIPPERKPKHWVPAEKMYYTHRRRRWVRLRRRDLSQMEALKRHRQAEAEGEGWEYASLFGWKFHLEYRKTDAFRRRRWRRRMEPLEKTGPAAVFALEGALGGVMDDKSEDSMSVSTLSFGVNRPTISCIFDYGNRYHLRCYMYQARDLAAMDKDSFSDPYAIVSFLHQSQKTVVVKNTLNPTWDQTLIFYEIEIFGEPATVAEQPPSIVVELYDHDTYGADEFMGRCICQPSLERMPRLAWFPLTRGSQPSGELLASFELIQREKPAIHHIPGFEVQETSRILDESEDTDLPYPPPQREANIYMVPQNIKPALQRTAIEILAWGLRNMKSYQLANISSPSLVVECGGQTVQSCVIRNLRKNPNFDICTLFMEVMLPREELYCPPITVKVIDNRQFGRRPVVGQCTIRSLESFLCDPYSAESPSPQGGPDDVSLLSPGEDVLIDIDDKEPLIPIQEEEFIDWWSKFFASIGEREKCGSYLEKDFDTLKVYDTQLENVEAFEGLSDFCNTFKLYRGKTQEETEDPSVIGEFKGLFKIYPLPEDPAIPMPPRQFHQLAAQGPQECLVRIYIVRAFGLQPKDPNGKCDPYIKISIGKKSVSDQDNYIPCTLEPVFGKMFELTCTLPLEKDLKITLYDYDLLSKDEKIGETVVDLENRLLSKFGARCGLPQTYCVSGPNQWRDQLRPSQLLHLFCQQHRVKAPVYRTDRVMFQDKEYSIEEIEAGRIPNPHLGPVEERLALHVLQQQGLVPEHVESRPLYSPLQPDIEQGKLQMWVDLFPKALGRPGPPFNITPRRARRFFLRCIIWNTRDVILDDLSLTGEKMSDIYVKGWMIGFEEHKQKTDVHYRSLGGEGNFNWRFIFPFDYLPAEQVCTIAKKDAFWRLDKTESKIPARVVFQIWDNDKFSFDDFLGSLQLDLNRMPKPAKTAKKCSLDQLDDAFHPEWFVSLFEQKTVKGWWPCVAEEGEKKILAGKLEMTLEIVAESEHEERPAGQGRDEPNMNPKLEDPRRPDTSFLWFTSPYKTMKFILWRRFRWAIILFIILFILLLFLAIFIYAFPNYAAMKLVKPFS

- Kd: 24 nM
Substance: FKBP8 (from UniProt Q14318)
